T1: IolR (Salmonella enterica) (UniProt A0A0H3NJ61)
T1 sequence: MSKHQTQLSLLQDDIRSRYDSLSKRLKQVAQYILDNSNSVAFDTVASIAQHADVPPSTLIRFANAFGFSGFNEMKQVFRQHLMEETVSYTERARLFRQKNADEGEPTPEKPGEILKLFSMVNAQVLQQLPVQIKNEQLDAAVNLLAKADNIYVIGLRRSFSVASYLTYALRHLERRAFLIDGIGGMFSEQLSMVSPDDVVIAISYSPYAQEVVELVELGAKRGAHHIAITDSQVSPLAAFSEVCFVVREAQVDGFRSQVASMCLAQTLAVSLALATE


Legend:
[1] = molecular target: T1, IolR (Salmonella enterica); test: EMSA
[2] = molecular target: IolR, myo-inositol catabolism repressor (RpiR-like transcriptional repressor) of Salmonella enterica (Salmonella enterica serovar Typhimurium LT2); test: SEC
IolR = IolR (Salmonella enterica, UniProt A0A0H3NJ61 1-277); test: EMSA

Molecule	binding [1]	also measured
CATACCGGTTTCCCTTACACAGAAGTGACCGGATAATTTTAAACGCTTTCGCTATTTTATGCTGTGACGTTTCCCGGATGTTGCGTTTTTCCTGCCAGATAGCGCGTTTTGAAACGGGTGAAATGTTCACCTAAACTGGTTGCCGCCTCG (double strand) [Ppat (150 nt)]	binds	
IolR, myo-inositol catabolism repressor (RpiR-like transcriptional repressor) of Salmonella enterica (natural protein)		stoichiometry N [2]: 4
CATGCATGATACTCTAATAGAACGAAAATTTCGTAAATAACCATATTAGCACAAATGAACTGAACATACAGTTAACAACATTCAAATTGCGCTGTGGTTACCTTCAGTACAGAATTTGCTGGCGGGCTGGGTTCTGAGCAATCTGAATCTGACCGCATAAATGCGACAGGATCAG (double strand) [PiolR (175 nt)]	binds	
Ppat45 (dsDNA) DNA 1: CAACCAGTTTAGGTGAACATTTCACCCGTTTCAAAACGCGCTATCT DNA 2: AGATAGCGCGTTTTGAAACGGGTGAAATGTTCACCTAAACTGGTTG		binding result (IolR): binds
